These results are taken from patent US20200079850A1 (SUTRO BIOPHARMA, published 2020).

Assay [1] has as its target T1, hPD1 (Acro Biosystems), SPR analyte (human, UniProt Q15116 25-167).
T1 construct: also called human PD1 kinetics
Briefly: SPR (Biacore), antibody captured by anti-Fc, hPD1 as analyte, 25 C. On the procedure:
Anti-Fc polyclonal antibodies were immobilized onto a CMS chip (GE Life Sciences) using amine coupling chemistry (from Amine Coupling Kit, GE Life Sciences). The immobilization steps were carried out at a flow rate of 25 μl/min in 1×HBS-EP+buffer (GE Life Sciences; 10× Stock diluted before use). The sensor surfaces were activated for 7 min with a mixture of NHS (0.05 M) and EDC (0.2 M). The Anti-Fc antibodies were injected over all 4 flow cells at a concentration of 25 ug/ml in 10 mM sodium acetate, pH 4.5, for 7 min. Ethanolamine (1 M, pH 8.5) was injected for 7 min to block any remaining activated groups. An average of 12,000 response units (RU) of capture antibody was immobilized on each flow cell.
Kinetic binding experiments were performed at 25° C. using 1×HBS-EP+buffer. Test and control antibodies were injected over the anti-Fc surface at concentrations of 5-10 μg/mL for 12 seconds at a flow rate of 10 μl/min on flow cells 2, 3 and 4, followed by a buffer wash for 30 seconds at the same flow rate. Kinetic characterization of antibody samples was carried out with a dilution series of antigen and 1 injection of 0 nM antigen. After capturing ligand (antibody) on the anti-Fc surface, the analyte (hPD1 or hLAG3, Acro Biosystems, Newark, Del.) was bound at 100, 25, 6.25 and 0 nM for 180 seconds, followed by a 450 second dissociation phase at a flow rate of 50 μl/min. Between each ligand capture and analyte binding cycle, regeneration was carried out using 2 injections of 10 mM Glycine pH 2.0 for 30 seconds at 30 μL/min, followed by a 30 second buffer wash step.
The data was fit with the Biacore T200 Evaluation software, using a 1:1 Langmuir binding model. KD (affinity, nM) was determined as a ratio of the kinetic rate constants calculated from the fits of the association and dissociation phases.
In general terms: SPR reads the build-up and loss of mass on a sensor chip optically.

The target of assay [2] is LAG3 (residues 1-477) C-terminally fused to the beta-galactosidase ProLink (PK) fragment, on U2OS cells (human). Briefly: cell-based or functional assay.
Chain of LAG3 (residues 1-477) C-terminally fused to the beta-galactosidase ProLink (PK) fragment, on U2OS cells (human) (P18627 1-477): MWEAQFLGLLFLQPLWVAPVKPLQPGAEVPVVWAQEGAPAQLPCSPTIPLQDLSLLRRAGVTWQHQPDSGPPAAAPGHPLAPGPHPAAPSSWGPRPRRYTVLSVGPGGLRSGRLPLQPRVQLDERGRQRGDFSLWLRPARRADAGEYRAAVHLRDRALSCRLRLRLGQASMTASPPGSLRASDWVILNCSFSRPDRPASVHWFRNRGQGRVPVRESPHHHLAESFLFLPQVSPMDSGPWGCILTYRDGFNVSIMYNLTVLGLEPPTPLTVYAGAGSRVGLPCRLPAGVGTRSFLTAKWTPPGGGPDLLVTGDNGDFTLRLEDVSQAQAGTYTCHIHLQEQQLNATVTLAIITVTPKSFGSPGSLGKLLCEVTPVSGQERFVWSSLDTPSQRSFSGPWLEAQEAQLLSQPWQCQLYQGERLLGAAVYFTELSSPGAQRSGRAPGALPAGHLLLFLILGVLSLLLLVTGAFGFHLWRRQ
The target in assay [3] is PD-1 (residues 1-199) C-terminally fused to the beta-galactosidase enzyme acceptor (EA) fragment, on U2OS … (human, UniProt Q15116 25-199). Briefly: cell-based or functional assay.
In assay [4] the target is T2, rabbit Fc-tagged recombinant human PD1 (rhPD1-rabbit Fc) (human, UniProt Q15116 25-167, limits assumed).
T2 construct: also called recombinant human PD-1 protein
T2 sequence (Q15116 25-167 limits assumed): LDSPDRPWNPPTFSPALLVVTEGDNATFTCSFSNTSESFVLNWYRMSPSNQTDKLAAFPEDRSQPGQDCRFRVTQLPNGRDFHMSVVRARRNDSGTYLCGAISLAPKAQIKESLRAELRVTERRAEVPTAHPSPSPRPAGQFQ
Put plainly: flow cytometry competition: inhibition of rhPD1-rabbit Fc binding to human PD-L1 on CHO cells; PE anti-rabbit IgG detection. On the procedure: CHO-k cells stably expressing human PD-L1 or PD-L2 were used to measure the ability of anti-PD1/LAG3 bi-specific antibody constructs to block rabbit Fc-tagged recombinant human PD1 (rhPD1-rabbit Fc) protein binding. Cells were seeded at 100,000 cells/well in 100 μL of FACS buffer in 96-well polypropylene plates. The cells were centrifuged and resuspended with test antibodies (2× concentration) diluted in FACS buffer, immediately followed by equal volume of rhPD1-rabbit Fc (added at 2× concentration; 0.2 ng/mL and 0.1 ng/mL final for PD-L1 and PD-L2, respectively). Cells were incubated on ice for 1 hour and washed twice. rhPD1-rabbit Fc binding on CHO-human PD-L1 or PD-L2 cells was detected with R-Phycoerythrin AffiniPure F(ab′)₂ Fragment Goat Anti-Rabbit IgG (H+L) (1:200 dilution, Jackson ImmunoResearch) for 30 minutes. The cells were washed twice with FACS buffer, fixed in 4% paraformaldehyde in PBS for 20 mins on ice in the dark, washed twice with FACS buffer, and analyzed using the BD LSR II Flow Cytometer. Data were analyzed using FlowJo (FlowJo, LLC; Ashland, Oreg.) to determine mean fluorescence intensities. Prism 6 software was used to create one site, specific binding with Hill slope curves (Log transform) to determine IC₅₀ values.

Assay [5] has as its target T3, human LAG3 expressed on the cell surface (CHO-LAG3, 293T-LAG3 cells) (human, UniProt P18627 23-525).
T3 construct: Stably transfected CHO or HEK293T cells; also called Human LAG3 (CHO); Human LAG3 (293T)
T3 sequence: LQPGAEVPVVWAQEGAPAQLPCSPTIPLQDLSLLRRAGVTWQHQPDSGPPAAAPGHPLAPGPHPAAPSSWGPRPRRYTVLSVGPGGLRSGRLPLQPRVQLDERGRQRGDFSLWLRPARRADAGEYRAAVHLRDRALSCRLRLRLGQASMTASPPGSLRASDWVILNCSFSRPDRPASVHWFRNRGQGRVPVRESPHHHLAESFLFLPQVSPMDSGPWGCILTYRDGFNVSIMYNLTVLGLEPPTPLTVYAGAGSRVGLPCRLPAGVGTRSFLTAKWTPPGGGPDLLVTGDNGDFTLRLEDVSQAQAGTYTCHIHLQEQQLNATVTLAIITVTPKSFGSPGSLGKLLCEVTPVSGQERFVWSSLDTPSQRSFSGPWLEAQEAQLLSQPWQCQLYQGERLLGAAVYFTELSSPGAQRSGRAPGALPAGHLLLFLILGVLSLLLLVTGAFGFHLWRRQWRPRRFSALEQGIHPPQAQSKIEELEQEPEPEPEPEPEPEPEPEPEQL
Put plainly: flow cytometry cell binding on CHO cells expressing human LAG3; PE anti-human IgG detection; one site-specific binding with Hill slope fit. On the procedure:
CHO-k cells stably expressing PD-1 or LAG3 (human or cynomolgus) on the cell surface were used to assess binding affinity of anti-PD-1/LAG3 bispecific antibody constructs. Cells were seeded at 100,000 cells/well in 100 μL of FACS buffer (1×PBS, 0.5% BSA, 0.1% sodium azide) in 96-well polypropylene plates. The cells were centrifuged at 1.5K rpm and resuspended with test antibodies diluted in FACS buffer and incubated on ice for 1 hour. The cells were washed twice with FACS buffer and incubated on ice for 30 mins with R-Phycoerythrin-AffiniPure F(ab′)2 Fragment Goat Anti-Human IgG (H+L) secondary detection antibody (1:200 dilution, Jackson ImmunoResearch Laboratories, West Grove, Pa.). The cells were washed twice with FACS buffer, fixed in 4% paraformaldehyde in PBS (Santa Cruz Biotechnology; Dallas, Tex.) for 20 mins on ice in the dark, washed twice with FACS buffer, and analyzed using the BD LSR II Flow Cytometer (BD Biosciences; San Jose, Calif.). Data were analyzed using FlowJo (FlowJo, LLC; Ashland, Oreg.) to determine mean fluorescence intensities. Binding constants were calculated using the statistical software, GraphPad Prism (GraphPad Software; La Jolla, Calif.) using the nonlinear regression equation, one site—specific binding with Hill slope. The secondary antibody by itself was used as a control.

T1 sequence (Q15116 25-167 limits assumed): as the sequence (Q15116 25-167 limits assumed) above

B1: PD-1/LAG3 Bi-specific Construct C: aPD1 1353-G10 Vk1-39LC scFvFc zwB V262E; aLAG3 1449-G09.2 Fab zwA V262E (bispecific antibody, human IgG1, kappa)
scFv: EVQLVQSGAEVKKPGASVKVSCKASGYRFPHYGISWVRQAPGQGLEWMGWISAYNGNTNYAQKLQGRVTMTTDTSTNTAYMELRSLRSDDTAVYYCARDVDYGTGSGYWGQGTLVTVSSGGGGSGGGGSGGGGSDIQLTQSPSSLSASVGDRVTITCSGDALPKQYAYWYQQKPGKAPKLLIYKDTERPSGVPSRFSGSSSGTKVTLTISSLQPEDFATYYCQSADNSITYRVFGGGTKVEIKAAGSDQEPKSSDKTHTCPPCPAPELLGGPSVFLFPPKPKDTLMISRTPEVTCEVVDVSHEDPEVKFNWYVDGVEVHNAKTKPREEQYNSTYRVVSVLTVLHQDWLNGKEYKCKVSNKALPAPIEKTISKAKGQPREPQVYVLPPSREEMTKNQVSLLCLVKGFYPSDIAVEWESNGQPENNYLTWPPVLDSDGSFFLYSKLTVDKSRWQQGNVFSCSVMHEALHNHYTQKSLSLSPGK
heavy: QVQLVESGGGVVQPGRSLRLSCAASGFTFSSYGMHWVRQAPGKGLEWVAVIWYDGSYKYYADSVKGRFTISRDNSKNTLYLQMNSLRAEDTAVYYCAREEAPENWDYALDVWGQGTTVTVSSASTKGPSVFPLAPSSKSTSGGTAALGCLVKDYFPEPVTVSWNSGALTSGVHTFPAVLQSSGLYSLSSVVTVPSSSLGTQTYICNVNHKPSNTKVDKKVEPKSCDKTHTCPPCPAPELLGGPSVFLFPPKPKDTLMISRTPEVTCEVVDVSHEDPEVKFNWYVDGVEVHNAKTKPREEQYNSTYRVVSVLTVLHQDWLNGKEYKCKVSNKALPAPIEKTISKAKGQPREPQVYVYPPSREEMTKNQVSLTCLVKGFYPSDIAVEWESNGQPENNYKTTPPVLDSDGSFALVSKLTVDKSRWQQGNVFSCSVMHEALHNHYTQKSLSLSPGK
light: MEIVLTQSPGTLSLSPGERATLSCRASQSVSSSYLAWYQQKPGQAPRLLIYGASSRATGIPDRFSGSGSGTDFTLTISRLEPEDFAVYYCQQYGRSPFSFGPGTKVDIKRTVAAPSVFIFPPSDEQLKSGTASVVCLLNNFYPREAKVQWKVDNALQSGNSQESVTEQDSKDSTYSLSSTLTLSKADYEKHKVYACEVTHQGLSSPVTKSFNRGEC
notes: The N-terminal Met is not included
As a reminder, the Kd is a measure of binding affinity in units of concentration. Low values mean higher affinity, high ones lower affinity. Usually koff stands for the rate constant with which the complex falls apart. What is called kon is a measure of how fast the partners come together. Read a high kon as faster complex formation. By IC50 is commonly meant the midpoint of a concentration-inhibition curve. B1: in assay [1], the Kd was 1.29 nM, the koff came to 0.000649 s⁻¹ and the on-rate constant (kon) turned out to be 503000 M⁻¹ s⁻¹. Also, in assay [2], the “EC50 of beta-galactosidase enzyme-fragment complementation (RLU) on U2OS cells co-expressing PD-1-EA and LAG3-PK; PD-1/LAG3 cell bridging, needs both targets” value (shortened to “EC50”) is 0.13 nM. Besides, the “EC50” value in assay [3] was found to be 0.13 nM. Further, the IC50 in assay [4] stood at 2.4 nM. In assay [5], this molecule gave a Bmax of 1020 MFI and a Kd of 0.5 nM.

B2: PD-1/LAG3 Bi-specific Construct B: aPD1 1353-G10 scFvFc zwB R28T/P30D/H31S V262E; aLAG3 1449-G09.2 Fab zwA V262E (bispecific antibody, human IgG1, kappa)
scFv: EVQLVQSGAEVKKPGASVKVSCKASGYTFDSYGISWVRQAPGQGLEWMGWISAYNGNTNYAQKLQGRVTMTTDTSTNTAYMELRSLRSDDTAVYYCARDVDYGTGSGYWGQGTLVTVSSGGGGSGGGGSGGGGSSYELTQPPSVSVSPGQTARITCSGDALPKQYAYWYQQKPGQAPVMVIYKDTERPSGIPERFSGSSSGTKVTLTISGVQAEDEADYYCQSADNSITYRVFGGGTKVTVLAAGSDQEPKSSDKTHTCPPCPAPELLGGPSVFLFPPKPKDTLMISRTPEVTCEVVDVSHEDPEVKFNWYVDGVEVHNAKTKPREEQYNSTYRVVSVLTVLHQDWLNGKEYKCKVSNKALPAPIEKTISKAKGQPREPQVYVLPPSREEMTKNQVSLLCLVKGFYPSDIAVEWESNGQPENNYLTWPPVLDSDGSFFLYSKLTVDKSRWQQGNVFSCSVMHEALHNHYTQKSLSLSPGK
heavy: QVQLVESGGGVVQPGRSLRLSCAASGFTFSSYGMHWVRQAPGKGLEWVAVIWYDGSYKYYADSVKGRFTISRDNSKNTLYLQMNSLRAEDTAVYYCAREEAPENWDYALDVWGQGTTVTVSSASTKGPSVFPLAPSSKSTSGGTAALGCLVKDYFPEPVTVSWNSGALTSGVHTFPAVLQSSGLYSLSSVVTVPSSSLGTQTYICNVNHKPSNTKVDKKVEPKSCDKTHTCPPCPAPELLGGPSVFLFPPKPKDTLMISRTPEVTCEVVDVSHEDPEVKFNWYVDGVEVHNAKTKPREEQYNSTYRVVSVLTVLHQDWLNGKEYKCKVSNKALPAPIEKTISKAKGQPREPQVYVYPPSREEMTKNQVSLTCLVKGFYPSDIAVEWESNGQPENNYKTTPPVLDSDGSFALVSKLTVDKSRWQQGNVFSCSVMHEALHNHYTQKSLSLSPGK
light: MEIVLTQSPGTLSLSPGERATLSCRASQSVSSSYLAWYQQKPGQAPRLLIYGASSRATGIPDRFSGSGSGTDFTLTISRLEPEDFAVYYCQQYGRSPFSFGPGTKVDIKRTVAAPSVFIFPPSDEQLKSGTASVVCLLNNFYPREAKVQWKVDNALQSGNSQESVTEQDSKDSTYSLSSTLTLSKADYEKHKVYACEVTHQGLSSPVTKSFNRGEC
notes: as for B1
In assay [1], B2 displayed a dissociation constant (Kd) of 4.37 nM, an off-rate constant (koff) of 0.00487 s⁻¹ and a kon of 1.12e+06 M⁻¹ s⁻¹. Further, the “EC50” value in assay [2] was determined as 0.16 nM. For the same molecule, in assay [3], the “EC50” value is 0.16 nM. Besides, the concentration for half-maximal inhibition (IC50) in assay [4] is 4.7 nM. In assay [5], the Bmax was 975 MFI and the Kd worked out at 0.4 nM.
